According to patent publication US20190169308A1 (ALLIGATOR BIOSCIENCE, published 2019):

What was measured:
[1] = biological target: T1, 5T4 (SPR antigen) (UniProt Q13641 32-355, limits assumed, biotinylated on the MASS-1 platform); experiment: SPR MASS-1, biotinylated 5T4 on streptavidin chip, mAb injected (bivalent)
T1 construct: also called biotinylated 5T4
T1 sequence (looked up): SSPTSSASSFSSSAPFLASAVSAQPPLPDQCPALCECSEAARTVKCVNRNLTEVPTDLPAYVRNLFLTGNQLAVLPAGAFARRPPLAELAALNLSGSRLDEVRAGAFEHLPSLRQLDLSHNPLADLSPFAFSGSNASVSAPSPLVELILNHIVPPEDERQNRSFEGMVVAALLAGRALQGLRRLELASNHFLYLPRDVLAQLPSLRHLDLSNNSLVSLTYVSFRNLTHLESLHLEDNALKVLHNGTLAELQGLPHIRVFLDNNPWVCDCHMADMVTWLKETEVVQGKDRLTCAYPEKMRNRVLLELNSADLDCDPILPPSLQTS
Description: (§1) Binding kinetics of the 5T4-specific mAbs have been studied using two different SPR-based platforms, the Biacore 3000 (GE Healthcare) and the MASS-1 platform (Sierra Sensors). Briefly, 5T4 was captured at the sensor chip surface either via direct amine coupling (Biacore platform) or using a streptavidin coated chip and biotinylated 5T4 (MASS-1 platform). The different 5T4-specific mAbs were then injected over the chip in increasing concentrations and the association and dissociation rates studied in real time. A 1:1 Langmuir model was used for curve fitting.

[2] = biological target: T1, 5T4 (SPR antigen); experiment: SPR Biacore 3000, amine-coupled 5T4, mAb injected (bivalent)
Description: as §1

[3] = biological target: T2, human 5T4 on transfected cells (human, UniProt Q13641 32-420); experiment: flow cytometry, 5T4-transfected B16 cells
T2 construct: whole, on cells; also called B16-5T4; CHOh5T4
T2 sequence (looked up): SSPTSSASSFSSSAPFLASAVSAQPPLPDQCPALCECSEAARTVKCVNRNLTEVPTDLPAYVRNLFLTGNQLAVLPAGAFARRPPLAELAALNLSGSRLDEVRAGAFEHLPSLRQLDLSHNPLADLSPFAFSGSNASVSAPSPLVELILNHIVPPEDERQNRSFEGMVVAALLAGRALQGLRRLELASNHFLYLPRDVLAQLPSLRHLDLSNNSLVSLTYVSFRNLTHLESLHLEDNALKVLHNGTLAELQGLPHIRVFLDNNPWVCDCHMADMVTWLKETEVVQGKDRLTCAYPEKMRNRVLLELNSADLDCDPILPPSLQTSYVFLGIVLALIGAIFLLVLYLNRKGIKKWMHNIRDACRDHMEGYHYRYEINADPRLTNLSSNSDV

[4] = biological target: T3, cynomolgus 5T4 on transfected CHO cells (Macaca mulatta (cynomolgus), UniProt F7CT46 35-420); experiment: flow cytometry, cynomolgus 5T4-transfected CHO cells
T3 construct: also called cyno5T4; cy5T4
T3 sequence: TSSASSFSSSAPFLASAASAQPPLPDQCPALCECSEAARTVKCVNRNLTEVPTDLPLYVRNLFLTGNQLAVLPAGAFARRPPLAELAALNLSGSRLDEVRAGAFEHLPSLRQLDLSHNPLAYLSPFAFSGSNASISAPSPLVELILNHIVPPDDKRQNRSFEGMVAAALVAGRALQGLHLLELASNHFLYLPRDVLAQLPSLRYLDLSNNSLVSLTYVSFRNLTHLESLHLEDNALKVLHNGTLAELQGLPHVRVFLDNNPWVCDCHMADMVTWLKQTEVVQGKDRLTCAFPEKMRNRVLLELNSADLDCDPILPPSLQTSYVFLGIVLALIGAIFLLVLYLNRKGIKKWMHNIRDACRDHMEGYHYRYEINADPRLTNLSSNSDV
Description: The potency of 5T4 antibodies in binding to cynomolgus 5T4 was determined by flow cytometry. CHO cells were stably transfected with […] (cynomolgus) 5T4. […] Samples were analysed either on a FACSCalibur or a FACSverse (BD Biosciences, Heidelberg, Germany) and mean fluorescence intensity (MFI) determined. […] To compare the EC50 values between human and cynomolgus 5T4, the cy5T4/hu5T4 ratio was calculated from the experiment with the full dose-response.

[5] = biological target: T4, mouse 5T4 on transfected cells (mouse, UniProt Q9Z0L0 32-426); experiment: flow cytometry, mouse 5T4-transfected cells
T4 construct: whole, on cells; also called murine 5T4
T4 sequence (looked up): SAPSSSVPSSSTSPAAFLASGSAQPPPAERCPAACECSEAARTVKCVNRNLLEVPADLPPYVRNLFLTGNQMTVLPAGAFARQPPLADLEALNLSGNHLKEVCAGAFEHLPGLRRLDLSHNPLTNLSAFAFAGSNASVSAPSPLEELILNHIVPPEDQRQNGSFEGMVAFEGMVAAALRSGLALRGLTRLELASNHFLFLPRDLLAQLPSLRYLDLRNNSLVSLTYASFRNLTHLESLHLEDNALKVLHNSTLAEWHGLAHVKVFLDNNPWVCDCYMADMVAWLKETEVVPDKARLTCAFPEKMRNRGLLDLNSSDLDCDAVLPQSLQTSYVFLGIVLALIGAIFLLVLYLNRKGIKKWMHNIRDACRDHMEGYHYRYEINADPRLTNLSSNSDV

[6] = biological target: T5, 5T4-Fc (human, UniProt Q13641 32-355, limits assumed); experiment: ELISA, coated 5T4-Fc
T5 construct: obtained from Peter L. Stern, University of Manchester; also called h5T4-Fc; recombinant 5T4
T5 sequence (looked up): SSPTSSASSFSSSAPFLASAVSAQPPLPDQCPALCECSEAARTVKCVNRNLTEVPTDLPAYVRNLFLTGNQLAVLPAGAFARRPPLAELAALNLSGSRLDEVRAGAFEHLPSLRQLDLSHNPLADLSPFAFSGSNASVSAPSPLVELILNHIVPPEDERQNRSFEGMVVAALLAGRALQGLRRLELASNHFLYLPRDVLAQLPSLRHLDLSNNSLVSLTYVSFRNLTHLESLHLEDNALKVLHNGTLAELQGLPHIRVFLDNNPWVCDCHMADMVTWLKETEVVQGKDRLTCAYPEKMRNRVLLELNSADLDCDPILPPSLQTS
Description: ELISA was performed using a standard protocol. Plates (#655074, Greiner Bio-One GmbH, Germany) were pre-coated with 0.5 μg/ml 5T4-Fc (obtained from Peter L. Stern, University of Manchester) overnight. 5T4 antibodies were diluted from 6 to 1.5×10⁻³ μg/ml in 1:4 dilutions and added in duplicates of 50 μl to each well. Binding was detected with rabbit anti-h kappa L-chain-HRP (P0129, Dako Denmark) and the ELISA was developed with SuperSignal ELISA PICO Chemiluminescent substrate (Thermo Scientific Pierce, Rockford, Ill. USA) for 2-10 minutes and read in an automated microplate based multi-detection reader (FLUOstar OPTIMA, Netherlands).

B1: 1210/1211 (antibody, V domains shown)
VH: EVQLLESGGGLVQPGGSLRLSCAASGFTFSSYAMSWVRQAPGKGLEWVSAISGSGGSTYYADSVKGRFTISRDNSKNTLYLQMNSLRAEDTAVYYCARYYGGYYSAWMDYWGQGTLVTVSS
VL: DIQMTQSPSSLSASVGDRVTITCRASQSISSYLNWYQQKPGKAPKLLIYAASSLQSGVPSRFSGSGSGTDFTLTISSLQPEDFATYYCQQTYGYLHTFGQGTKLEIK
With B1 the koff [1] was 0.00019 s⁻¹, the kon [1] was 510000 M⁻¹ s⁻¹ and the Kd [2] was 0.2 nM. For the same binder, the koff [2] was 0.0001 s⁻¹, the kon [2] was 500000 M⁻¹ s⁻¹ and the EC50 [3] was 0.8 nM. The EC50 [4] was 0.7 nM, the binding result [5] was “no binding” and the EC50 [6] was 0.48 nM.

B2: 1206/1207 (antibody, V domains shown)
VH: EVQLLESGGGLVQPGGSLRLSCAASGFTFSGSSMSWVRQAPGKGLEWVSSIYYSGSGTYYADSVKGRFTISRDNSKNTLYLQMNSLRAEDTAVYYCARYGRNVHPYNLDYWGQGTLVTVSS
VL: DIQMTQSPSSLSASVGDRVTITCRASQSISSYLNWYQQKPGKAPKLLIYAASSLQSGVPSRFSGSGSGTDFTLTISSLQPEDFATYYCQQGYYYLPTFGQGTKLEIK
B2 gave a koff [1] of 0.00013 s⁻¹, a kon [1] of 1.4e+06 M⁻¹ s⁻¹ and a Kd [2] of 2.3 nM. It also gave a koff [2] of 0.00028 s⁻¹, a kon [2] of 130000 M⁻¹ s⁻¹ and an EC50 [3] of 1.8 nM. For the same binder, the EC50 [4] was 1.53 nM, the binding result [5] was “no binding” and the EC50 [6] was 0.64 nM.
